Measurements reported in patent US20120115741A1 (BRACCO IMAGING S P A, published 2012).

Legend:
Experiment in all cases: phage ELISA, Fab adsorbed on plate, peptide-displaying phage added, anti-M13-HRP detection
[1] = biological target: T1, Phage-displayed dodecapeptide of SEQ ID NO 7 (Ph.D.-12 library clone) (filamentous phage M13)
T1 construct: In the screening ELISA the peptide stood on whole M13 phage particles, not as a free peptide; not shown: cpIII coat protein of the filamentous phage M13; the dodecapeptide is at its N-terminus
T1 peptide: MQSPIVLPLSLS

[2] = biological target: T2, Phage-displayed dodecapeptide of SEQ ID NO 6 (Ph.D.-12 library clone) (filamentous phage M13)
T2 construct: In the screening ELISA the peptide stood on whole M13 phage particles, not as a free peptide; not shown: cpIII coat protein of the filamentous phage M13; the dodecapeptide is at its N-terminus
T2 peptide: MQSPFTPHFAER

[3] = biological target: T3, Phage-displayed dodecapeptide of SEQ ID NO 5 (Ph.D.-12 library clone) (filamentous phage M13)
T3 construct: In the screening ELISA the peptide stood on whole M13 phage particles, not as a free peptide; not shown: cpIII coat protein of the filamentous phage M13; the dodecapeptide is at its N-terminus
T3 peptide: TMGFTAPRFPHY

[4] = biological target: T4, Phage-displayed dodecapeptide of SEQ ID NO 8 (Ph.D.-12 library clone) (filamentous phage M13)
T4 construct: In the screening ELISA the peptide stood on whole M13 phage particles, not as a free peptide; not shown: cpIII coat protein of the filamentous phage M13; the dodecapeptide is at its N-terminus
T4 peptide: HHEPGAWLPLSP

Measured: OD450nm

B1: Fab 68 (soluble Fab, heavy chain clone 6 and light chain clone 8 from a coronary plaque sample) (Fab, V domains shown)
VH: LEESGAEVKKPGENLKISCEASGYNFVNHWIGWVRQMPGRGLEWMGRIYPGDSETRFSPSFQGQVTISVDKTLSTASLQWNSLKTSDSATYYCVTLGRWSSWQGGALSWGQGT
VL: ELTQSPATVSVSPGERATLSCRASQSISFHLAWYQQKPGQAPSLLIYGTSTRATGIPARFSGSGSGTEFTLTISSLQSEDSAVYYCQQYHNWPPLTFGGGT
notes: also called Fab of the invention; Fabs of the present invention
> 1 OD450nm: all assays above
